Laboratory results from patent US20180057888A1 (University of Texas, published 2018).

Target: RNA Polymerase II (RNAPII), phospho-Ser2 C-terminal domain (pS2-CTD) (UniProt P24928 1-1970)
Assay: co-immunoprecipitation with anti-c-myc antibody, Western blot for RNAPII
Protocol: Whole-cell lysates and nuclear extracts were prepared as previously described (Morales et al., 2014). See Supplementary Table S2 for a list of specific antibodies and dilutions used. Protein concentrations were determined by BCA Assay following manufacturer's instructions (Thermo Scientific). Normalized protein samples were separated on denaturing gradient gels (4-20% from BioRad) and were transferred to PVDF membranes for immunoblotting. After transfer, the membranes were first blocked with 1× Sigma Blocking Buffer for an hour at room temperature. The membranes were then incubated with the indicated primary antibodies diluted in 1× Sigma Blocking Buffer at 4° C. overnight. After this step, the membranes were washed with PBST (3×, 10 minutes each). HRP-conjugated secondary antibodies were diluted in 1× Sigma Blocking Buffer and incubated with the membranes at room temperature for 1 hr. […]
Log phase cells were plated in 10-cm dishes, and incubated after transfection with either empty pCMV-myc vector, myc-tagged wild-type K-H or myc-tagged mutant K-H (R106A) constructs for 48 hr using Lipofectamine 2000. […] Co-immunoprecipitated proteins (e.g., RNAPII) were analyzed by Western blot as previously described.

B1: myc-tagged mutant K-H (R106A) (other)
chain: MSSFSESALEKKLSELSNSQQSVQTLSLWLIHHRKHAGPIVSVWHRELRKAKSNRKLTFLYLANDVIQNSKRKGPEFTREFESVLVDAFSHVAREADEGCKKPLEALLNIWQERSVYGGEFIQQLKLSMEDSKSPPPKATEEKKSLKRTFQQIQEEEDDDYPGSYSPQDPSAGPLLTEELIKALQDLENAASGDATVRQKIASLPQEVQDVSLLEKITDKEAAERLSKTVDEACLLLAEYNGRLAAELEDRRQLARMLVEYTQNQKDVLSEKEKKLEEYKQKLARVTQVRKELKSHIQSLPDLSLLPNVTGGLAPLPSAGDLFSTD
notes: Expressed from a transfected myc-tagged construct and immunoprecipitated with anti-c-myc antibody; also called R106A mutant K-H; mutant R106A K-H; not shown: myc tag from the pCMV-myc vector
binding result: no binding
